Measurements published in patent US20240400696A1.

molecular target: CD3; experiment: Octet, crude lysate
Sequence (P07766 23-126): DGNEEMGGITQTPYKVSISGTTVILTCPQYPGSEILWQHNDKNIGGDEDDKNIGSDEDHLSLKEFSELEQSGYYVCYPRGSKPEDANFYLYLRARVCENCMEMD

Kd [nM] | Binder
9.7 | AC3418 (bispecific antibody, V domains shown) VH: EVQLLESGGGIVQPGGSLKLSCAASGFTFNTYAMNWVRQAPGKGLEWVARIRSKYNNYATYEADSVKDRFTISRDDSKNTVYLQMNNLKTEDTAVYYCVRHENFGNSYVSWFAHWGQGTLVTVSS VL: ELVVTQEPSLTVSPGGTVTLTCRSSNGAVTSSNYANWVQQKPGQAPRGLIGGTNKRAPGTPARFSGSLLGGKAALTLSGVQPEDEAVYYCALWYPNLWVFGGGTKLTVL
7.2 | AC3419 (bispecific antibody, V domains shown) VH: EVQLLESGGGIVQPGGSLKLSCAASGFTFNTYAMNWVRQAPGKGLEWVARIRSKYNNYATYQADSVKDRFTISRDDSKNTVYLQMNNLKTEDTAVYYCVRHENFGNSYVSWFAHWGQGTLVTVSS VL: ELVVTQEPSLTVSPGGTVTLTCRSSNGAVTSSNYANWVQQKPGQAPRGLIGGTNKRAPGTPARFSGSLLGGKAALTLSGVQPEDEAVYYCALWYPNLWVFGGGTKLTVL
8.3 | AC3420 (bispecific antibody, V domains shown) VH: EVQLLESGGGIVQPGGSLKLSCAASGFTFNTYAMNWVRQAPGKGLEWVARIRSKYNNYATYGADSVKDRFTISRDDSKNTVYLQMNNLKTEDTAVYYCVRHENFGNSYVSWFAHWGQGTLVTVSS VL: ELVVTQEPSLTVSPGGTVTLTCRSSNGAVTSSNYANWVQQKPGQAPRGLIGGTNKRAPGTPARFSGSLLGGKAALTLSGVQPEDEAVYYCALWYPNLWVFGGGTKLTVL
37.2 | AC3421 (bispecific antibody, V domains shown) VH: EVQLLESGGGIVQPGGSLKLSCAASGFTFNTYAMNWVRQAPGKGLEWVARIRSKYNNYATYWADSVKDRFTISRDDSKNTVYLQMNNLKTEDTAVYYCVRHENFGNSYVSWFAHWGQGTLVTVSS VL: ELVVTQEPSLTVSPGGTVTLTCRSSNGAVTSSNYANWVQQKPGQAPRGLIGGTNKRAPGTPARFSGSLLGGKAALTLSGVQPEDEAVYYCALWYPNLWVFGGGTKLTVL
8 | AC3422 (bispecific antibody, V domains shown) VH: EVQLLESGGGIVQPGGSLKLSCAASGFTFNTYAMNWVRQAPGKGLEWVARIRSKYNNYATYYKDSVKDRFTISRDDSKNTVYLQMNNLKTEDTAVYYCVRHENFGNSYVSWFAHWGQGTLVTVSS VL: ELVVTQEPSLTVSPGGTVTLTCRSSNGAVTSSNYANWVQQKPGQAPRGLIGGTNKRAPGTPARFSGSLLGGKAALTLSGVQPEDEAVYYCALWYPNLWVFGGGTKLTVL
8.2 | AC3423 (bispecific antibody, V domains shown) VH: EVQLLESGGGIVQPGGSLKLSCAASGFTFNTYAMNWVRQAPGKGLEWVARIRSKYNNYATYYPDSVKDRFTISRDDSKNTVYLQMNNLKTEDTAVYYCVRHENFGNSYVSWFAHWGQGTLVTVSS VL: ELVVTQEPSLTVSPGGTVTLTCRSSNGAVTSSNYANWVQQKPGQAPRGLIGGTNKRAPGTPARFSGSLLGGKAALTLSGVQPEDEAVYYCALWYPNLWVFGGGTKLTVL
5.4 | AC3424 (bispecific antibody, V domains shown) VH: EVQLLESGGGIVQPGGSLKLSCAASGFTFNTYAMNWVRQAPGKGLEWVARIRSKYNNYATYYADSVKGRFTISRDDSKNTVYLQMNNLKTEDTAVYYCVRHENFGNSYVSWFAHWGQGTLVTVSS VL: ELVVTQEPSLTVSPGGTVTLTCRSSNGAVTSSNYANWVQQKPGQAPRGLIGGTNKRAPGTPARFSGSLLGGKAALTLSGVQPEDEAVYYCALWYPNLWVFGGGTKLTVL
9.8 | AC3425 (bispecific antibody, V domains shown) VH: EVQLLESGGGIVQPGGSLKLSCAASGFTFNTYAMNWVRQAPGKGLEWVARIRSKYNNYATYYADSVKDRFTISRDDSKNTVDLQMNNLKTEDTAVYYCVRHENFGNSYVSWFAHWGQGTLVTVSS VL: ELVVTQEPSLTVSPGGTVTLTCRSSNGAVTSSNYANWVQQKPGQAPRGLIGGTNKRAPGTPARFSGSLLGGKAALTLSGVQPEDEAVYYCALWYPNLWVFGGGTKLTVL
121 | AC3426 (bispecific antibody, V domains shown) VH: EVQLLESGGGIVQPGGSLKLSCAASGFTFNTYAMNWVRQAPGKGLEWVARIRSKYNNYATYYADSVKDRFTISRDDSKNTVGLQMNNLKTEDTAVYYCVRHENFGNSYVSWFAHWGQGTLVTVSS VL: ELVVTQEPSLTVSPGGTVTLTCRSSNGAVTSSNYANWVQQKPGQAPRGLIGGTNKRAPGTPARFSGSLLGGKAALTLSGVQPEDEAVYYCALWYPNLWVFGGGTKLTVL
9.6 | AC3427 (bispecific antibody, V domains shown) VH: EVQLLESGGGIVQPGGSLKLSCAASGFTFNTYAMNWVRQAPGKGLEWVARIRSKYNNYATYYADSVKDRFTISRDDSKNTVSLQMNNLKTEDTAVYYCVRHENFGNSYVSWFAHWGQGTLVTVSS VL: ELVVTQEPSLTVSPGGTVTLTCRSSNGAVTSSNYANWVQQKPGQAPRGLIGGTNKRAPGTPARFSGSLLGGKAALTLSGVQPEDEAVYYCALWYPNLWVFGGGTKLTVL
5.9 | AC3428 (bispecific antibody, V domains shown) VH: EVQLLESGGGIVQPGGSLKLSCAASGFTFNTYAMNWVRQAPGKGLEWVARIRSKYNNYATYYADSVKDRFTISRDDSKNTVYLQMNELKTEDTAVYYCVRHENFGNSYVSWFAHWGQGTLVTVSS VL: ELVVTQEPSLTVSPGGTVTLTCRSSNGAVTSSNYANWVQQKPGQAPRGLIGGTNKRAPGTPARFSGSLLGGKAALTLSGVQPEDEAVYYCALWYPNLWVFGGGTKLTVL
7.1 | AC3429 (bispecific antibody, V domains shown) VH: EVQLLESGGGIVQPGGSLKLSCAASGFTFNTYAMNWVRQAPGKGLEWVARIRSKYNNYATYYADSVKDRFTISRDDSKNTVYLQMNQLKTEDTAVYYCVRHENFGNSYVSWFAHWGQGTLVTVSS VL: ELVVTQEPSLTVSPGGTVTLTCRSSNGAVTSSNYANWVQQKPGQAPRGLIGGTNKRAPGTPARFSGSLLGGKAALTLSGVQPEDEAVYYCALWYPNLWVFGGGTKLTVL
4.8 | AC3430 (bispecific antibody, V domains shown) VH: EVQLLESGGGIVQPGGSLKLSCAASGFTFNTYAMNWVRQAPGKGLEWVARIRSKYNNYATYYADSVKDRFTISRDDSKNTVYLQMNSLKTEDTAVYYCVRHENFGNSYVSWFAHWGQGTLVTVSS VL: ELVVTQEPSLTVSPGGTVTLTCRSSNGAVTSSNYANWVQQKPGQAPRGLIGGTNKRAPGTPARFSGSLLGGKAALTLSGVQPEDEAVYYCALWYPNLWVFGGGTKLTVL
5.2 | AC3431 (bispecific antibody, V domains shown) VH: EVQLLESGGGIVQPGGSLKLSCAASGFTFNTYAMNWVRQAPGKGLEWVARIRSKYNNYATYYADSVKDRFTISRDDSKNTVYLQMNYLKTEDTAVYYCVRHENFGNSYVSWFAHWGQGTLVTVSS VL: ELVVTQEPSLTVSPGGTVTLTCRSSNGAVTSSNYANWVQQKPGQAPRGLIGGTNKRAPGTPARFSGSLLGGKAALTLSGVQPEDEAVYYCALWYPNLWVFGGGTKLTVL
4.6 | AC3433 (bispecific antibody, V domains shown) VH: EVQLLESGGGIVQPGGSLKLSCAASGFTFNTYAMNWVRQAPGKGLEWVARIRSKYNNYATYYADSVKDRFTISRDDSKNTVYLQMNNLKTEDTAVYYCVRHENFGNSYVSWFAHWGQGTLVTVSS VL: ELVVTQEPSLTVSPGGTVTLTCRSSNGAVTSSNYANWVQQKPGQAPRGLIGGTNKRAPGTPARFSGSLQGGKAALTLSGVQPEDEAVYYCALWYPNLWVFGGGTKLTVL
4.9 | AC3434 (bispecific antibody, V domains shown) VH: EVQLLESGGGIVQPGGSLKLSCAASGFTFNTYAMNWVRQAPGKGLEWVARIRSKYNNYATYYADSVKDRFTISRDDSKNTVYLQMNNLKTEDTAVYYCVRHENFGNSYVSWFAHWGQGTLVTVSS VL: ELVVTQEPSLTVSPGGTVTLTCRSSNGAVTSSNYANWVQQKPGQAPRGLIGGTNKRAPGTPARFSGSLLEGKAALTLSGVQPEDEAVYYCALWYPNLWVFGGGTKLTVL
6.1 | AC3435 (bispecific antibody, V domains shown) VH: EVQLLESGGGIVQPGGSLKLSCAASGFTFNTYAMNWVRQAPGKGLEWVARIRSKYNNYATYYADSVKDRFTISRDDSKNTVYLQMNNLKTEDTAVYYCVRHENFGNSYVSWFAHWGQGTLVTVSS VL: ELVVTQEPSLTVSPGGTVTLTCRSSNGAVTSSNYANWVQQKPGQAPRGLIGGTNKRAPGTPARFSGSLDGGKAALTLSGVQPEDEAVYYCALWYPNLWVFGGGTKLTVL
7.3 | AC3436 (bispecific antibody, V domains shown) VH: EVQLLESGGGIVQPGGSLKLSCAASGFTFNTYAMNWVRQAPGKGLEWVARIRSKYNNYATYYADSVKDRFTISRDDSKNTVYLQMNNLKTEDTAVYYCVRHENFGNSYVSWFAHWGQGTLVTVSS VL: ELVVTQEPSLTVSPGGTVTLTCRSSNGAVTSSNYANWVQQKPGQAPRGLIGGTNKRAPGTPARFSGSSLGGKAALTLSGVQPEDEAVYYCALWYPNLWVFGGGTKLTVL
3.2 | AC3437 (bispecific antibody, V domains shown) VH: EVQLLESGGGIVQPGGSLKLSCAASGFTFNTYAMNWVRQAPGKGLEWVARIRSKYNNYATYYADSVKDRFTISRDDSKNTVYLQMNNLKTEDTAVYYCVRHENFGNSYVSWFAHWGQGTLVTVSS VL: ELVVTQEPSLTVSPGGTVTLTCRSSNGAVTSSNYANWVQQKPGQAPRGLIGGTNKRAPGTPARFSGSKLGGKAALTLSGVQPEDEAVYYCALWYPNLWVFGGGTKLTVL
8.3 | AC3438 (bispecific antibody, V domains shown) VH: EVQLLESGGGIVQPGGSLKLSCAASGFTFNTYAMNWVRQAPGKGLEWVARIRSKYNNYATYYADSVKDRFTISRDDSKNTVYLQMNNLKTEDTAVYYCVRHENFGNSYVSWFAHWGQGTLVTVSS VL: ELVVTQEPSLTVSPGGTVTLTCRSSNGAVTSSNYANWVQQKPGQAPRGLIGGTNKRAPGTPARFSGSNLGGKAALTLSGVQPEDEAVYYCALWYPNLWVFGGGTKLTVL
8.9 | AC3439 (bispecific antibody, V domains shown) VH: EVQLLESGGGIVQPGGSLKLSCAASGFTFNTYAMNWVRQAPGKGLEWVARIRSKYNNYATYYADSVKDRFTISRDDSKNTVYLQMNNLKTEDTAVYYCVRHENFGNSYVSWFAHWGQGTLVTVSS VL: ELVVTQEPSLTVSPGGTVTLTCRSSNGAVTSSNYANWVQQKPGQAPRGLIGGTNKRAPGTPARFSGSTLGGKAALTLSGVQPEDEAVYYCALWYPNLWVFGGGTKLTVL
40.2 | AC3367 (bispecific antibody, V domains shown) VH: EVQLLESGGGIVQPGGSLKLSCAASGFTFNTYAMNWVRQAPGKGLEDVARIRSKYNNYATYYADSVKDRFTISRDDSKNTVYLQMNNLKTEDTAVYYCVRHENFGNSYVSWFAHWGQGTLVTVSS VL: ELVVTQEPSLTVSPGGTVTLTCRSSNGAVTSSNYANWVQQKPGQAPRGLIGGTNKRAPGTPARFSGSLLGGKAALTLSGVQPEDEAVYYCALWYPNLWVFGGGTKLTVL
